Tests used:
[1] = molecular target: HIV-1 JR-CSF Env trimer (gp120/gp41) on LAI-chimeric molecular clone virions (HIV-1 isolate JR-CSF | HIV-1 isolate LAI) (UniProt P20871)
[2] = molecular target: HIV-1 ADA Env trimer (gp120/gp41) on LAI-chimeric molecular clone virions (HIV-1 isolate ADA | HIV-1 isolate LAI)
[3] = molecular target: HIV-1 JR-FL Env trimer (gp120/gp41) on LAI-chimeric molecular clone virions (HIV-1 isolate JR-FL | HIV-1 isolate LAI)
[4] = molecular target: HIV-1 ADA Env trimer (gp120/gp41) on LAI-chimeric molecular clone virions (HIV-1 isolate ADA | HIV-1 isolate LAI); test: native gel or EMSA; Blue Native PAGE: virions concentrated 100-fold, 1% DDM for 20 min on ice, 4-16% NativePAGE Bis-Tris gel at RT, Western blot with mAb cocktails to gp120 or to gp41; virions untreated or first incubated 1 h at 37-57°C or up to 96 h at 37°C
[5] = molecular target: HIV-1 JR2 Env trimer (gp120/gp41) on LAI-chimeric molecular clone virions (HIV-1 isolate JR-FL | HIV-1 isolate LAI); test: as above
[6] = molecular target: HIV-1 JR-CSF Env trimer (gp120/gp41) on LAI-chimeric molecular clone virions (HIV-1 isolate JR-CSF | HIV-1 isolate LAI) (UniProt P20871); test: as above
[7] = molecular target: HIV-1 JR-FL Env trimer (gp120/gp41) on LAI-chimeric molecular clone virions (HIV-1 isolate JR-FL | HIV-1 isolate LAI); test: as above
[8] = molecular target: HIV-1 JR-FL SOS Env trimer (A501C, T605C) on LAI-chimeric molecular clone virions (HIV-1 isolate JR-FL | HIV-1 isolate LAI); test: as above

Substance: Four-domain soluble human CD4 (receptor)
- sCD4 IC50: concentration of 4-domain soluble CD4 required to decrease HIV-1 infectivity by 50% (TZM-bl cells) [1]: 1.1 µg/mL
- sCD4 IC50: concentration of 4-domain soluble CD4 required to decrease HIV-1 infectivity by 50% (TZM-bl cells) [2]: 0.17 µg/mL
- sCD4 IC50: concentration of 4-domain soluble CD4 required to decrease HIV-1 infectivity by 50% (TZM-bl cells) [3]: 1.2 µg/mL

Substance: HIV-1 ADA Env trimer (gp120/gp41) on LAI-chimeric molecular clone virions (complex)
- stoichiometry N [4]: 3

Substance: HIV-1 JR2 Env trimer (gp120/gp41) on LAI-chimeric molecular clone virions (complex)
- stoichiometry N [5]: 3

Substance: HIV-1 JR-CSF Env trimer (gp120/gp41) on LAI-chimeric molecular clone virions (from UniProt P20871 32-503) (complex)
- stoichiometry N [6]: 3

Substance: HIV-1 JR-FL Env trimer (gp120/gp41) on LAI-chimeric molecular clone virions (complex)
- stoichiometry N [7]: 3

Substance: HIV-1 JR-FL SOS Env trimer (A501C, T605C) on LAI-chimeric molecular clone virions (complex)
- stoichiometry N [8]: 3

Reference: PMC3124497
